Assay [1] addresses T1, human mesothelin Fragment 1 (residues 296-390) (human, UniProt Q13421 296-390).
T1 construct: also called Region I
T1 chain: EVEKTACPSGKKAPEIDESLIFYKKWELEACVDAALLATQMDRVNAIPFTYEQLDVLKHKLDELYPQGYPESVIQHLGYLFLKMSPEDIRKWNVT
The assay is described as follows: ELISA on mesothelin Region I, VHH concentration not given. For orientation: In an ELISA, binding on a coated surface is turned into a signal by an enzyme label.

The target in assay [2] is T2, human mesothelin Region IAB (296-359) (human, UniProt Q13421 296-359).
T2 construct: also called IAB domain
T2 chain: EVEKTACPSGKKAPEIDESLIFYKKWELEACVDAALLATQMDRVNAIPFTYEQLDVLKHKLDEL
The assay is described as follows: ELISA on mesothelin Region IAB, VHH concentration not given.

Assay [3] concerns the target T3, human mesothelin Region IAB Y318A mutant (human, UniProt Q13421 296-359).
T3 chain: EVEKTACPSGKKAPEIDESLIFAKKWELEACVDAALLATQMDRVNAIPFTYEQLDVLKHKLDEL
The assay is described as follows: ELISA on Region IAB mutant Y318A, VHH concentration not given.

Consider two molecules from patent publication US20220064324A1 (US Dept. of Health and Human Services, published 2022).

B1: G8 camel single-domain (VHH) monoclonal antibody (VHH)
VHH: QVKLEESGGGSVQAGGSLRLSCTTSGYTNSYKWMGWFRQAPGQEREGVAVIYTGNDRTYYSDSVKGRFTISRDNAKNMIYLDMTRLRPEDSAVYECAIGHDGAWRYWGQGTQVTVSS
notes: Isolated from a camel VHH phage display library; also called G8 antibody; G8 anti-mesothelin VHH antibody
Take B1: the binding result in assay [1] is reported as “binds”; in assay [2], “binds”; in assay [3] it was “no binding”.

B2: A101 camel single-domain (VHH) monoclonal antibody (VHH)
VHH: QVQLVESGGGTVQAGGSLKLACAASGLPRTYNVMGWFRQAPGKEREGVAIIYTTTGATYYRDSVKGRATISQDNAKKSVSLQMNSLRPEDTAIYYCVARQPNSGPWEYWGQGTQVTVSS
notes: Isolated from a camel VHH phage display library; also called A101 antibody; A101 anti-mesothelin VHH antibody
On to B2, for which the binding result was “binds” in assay [1], “binds” in assay [2] and “no binding” in assay [3].
